Experimental data reported in FireProtDB (doi:10.1021/bi00158a021).

Conditions: Bos taurus, pH 8, GdnHCl, CD, cacodylate 50 mM, reversible: yes

Row | Substance | ddG of mutation (higher = less stable) (30 °C, structure 1BP2) [kcal/mol] | denaturant m value (30 °C, structure 1BP2) [kcal/mol/M] | denaturant midpoint (higher = more stable) (30 °C, structure 1BP2) [M] | unfolding free energy (30 °C, structure 1BP2) [kcal/mol] | further results
1 | Phospholipase A2 F128A, P00593 | – | – | – | – | ddG of mutation (higher = less stable) (25 °C, structure 1BP2): 0.9 kcal/mol; denaturant m value (25 °C, structure 1BP2): 1.47 kcal/mol/M; denaturant midpoint (higher = more stable) (25 °C, structure 1BP2): 5.9 M; unfolding free energy (25 °C, structure 1BP2): 8.6 kcal/mol
2 | Phospholipase A2 wild type, P00593 | – | – | – | – | denaturant m value (30 °C): 1.47 kcal/mol/M; denaturant midpoint (higher = more stable) (30 °C): 6.9 M; unfolding free energy (30 °C): 9.5 kcal/mol
3 | Phospholipase A2 F128I, P00593 | -1.9 | 1.65 | 6.9 | 11.4 | –
4 | Phospholipase A2 F44I, P00593 | -2.7 | 1.73 | 7 | 12.2 | –
5 | Phospholipase A2 F128Y, P00593 | -0.6 | 1.53 | 6.6 | 10.1 | –
6 | Phospholipase A2 F44Y, P00593 | -1.5 | 1.58 | 7 | 11 | –
